Measurements as given in the Human Domainome abundance scans (Beltran et al. 2025).

B1: POU domain, class 3, transcription factor 3, residues 320 to 388; numbered along this chain, P20264 (parent)
chain: DDLEQFAKQFKQRRIKLGFTQADVGLALGTLYGNVFSQTTICRFEALQLSFKNMCKLKPLLNKWLEEAD

Variants of: B1
Assay: abundance fitness (aPCA) (normalised: wild type 0, dead -1); higher = more abundant; growth selection in yeast, the domain comes from the species named
Details: Homo sapiens

Abundance fitness of substitutions, site by site:
T40: Q -0.102 | C -0.615 | W -0.441 | E -0.237 | I -0.553 | A -0.386 | S -0.49 | P -0.704 | R -0.583 | G -0.92 | D -0.393 | Y -0.59 | N -0.734 | K -0.179 | H -0.778 | V -0.174
A46: K 0.205 | D -0.573 | H -0.043 | Q -0.282 | M 0.22 | E -0.178 | P -0.843 | V -0.702 | C -0.299 | W -0.601 | S -0.059 | T -0.142 | G -0.053 | R -0.277 | I -0.727
Q38: C -0.32 | A -0.143 | E 0.192 | N -0.435 | R -0.103 | G 0.003 | T 0.079 | S -0.082 | P -0.028 | Y -0.207 | F -0.356 | V -0.421 | L -0.531 | H -0.524 | K -0.18 | M -0.498 | D -0.075
F44: K -0.696 | P -1.02 | R -0.946 | L -0.859 | G -0.772 | V -0.678 | W -0.568 | A -1.04 | M -0.725
F36: A -0.068 | P -0.043 | H -0.216 | E -0.121 | W -0.714 | T 0.071 | R 0.368 | M 0.021 | Q -0.214 | C 0.219 | L -0.07 | Y -0.04 | V 0.017 | K -0.364
C42: S -0.14 | Y 0.055 | N 0.208 | A 0.076 | R 0.054 | K 0.13 | H -0.006 | D 0.032 | P -0.276 | Q 0.06 | I 0.11 | T -0.176 | M -0.284 | W -0.38 | L -0.193 | G -0.014
L47: C 0.021 | F -0.293 | H 0.083 | S -0.29 | K -0.111 | A -0.342 | M 0.113 | E -0.662 | N 0.599 | D -0.661 | R 0.039 | G -0.038
R43: M -0.62 | T -0.946 | D -0.402 | E -0.076 | G -0.798 | Q -0.113 | L -0.858 | P -0.975 | K -0.034 | W -0.866 | H -0.586 | C -0.447
T39: H 0.074 | R -0.058 | L -0.195 | Y -0.769 | G -0.215 | P -0.579 | D 0.014 | M -0.502 | S -0.099 | I -0.157 | A -0.011 | F -0.509 | E 0.11 | Q -0.077 | W -0.846 | K -0.006
E45: R -0.891 | A -0.511 | G -0.982 | L -0.628 | M -0.82 | T -0.729 | Q 0.081 | W -0.787 | P -0.803 | K -0.649 | F -0.58 | S -0.628 | V -0.946
S37: F -0.841 | T -0.337 | E -0.32 | V -0.7 | C -0.629 | K -0.532 | Q -0.386 | A -0.246 | R -0.55 | L -0.629 | N -0.338 | Y -0.725 | D -0.157 | G -0.44 | H -0.076
V35: N -0.601 | I -0.609 | M -0.278 | L -0.462 | G -0.204 | P -0.105 | Y -0.108 | Q 0.033 | S -0.125 | T 0.304 | H -0.152 | R -0.009
